Legend:
Assay in all cases: EMSA
Conditions in all cases: EMSA: 20 mM HEPES pH 7.3, 150 mM NaCl, 0.5 mM TCEP, 30 min room temperature, 0.5 uM nucleosome or DNA, FRET: 20 mM HEPES pH 7.1, 100 mM NaCl
[1] = target: MBP-DBD C/EBPalpha (UniProt P53566)
[2] = target: PU.1 ETS (ETSPU.1) (mouse) (UniProt P17433)
[3] = target: PU.1 ETS Q218H Q218H (mouse) (UniProt P17433)

Chain of MBP-DBD C/EBPalpha (P53566 214-359): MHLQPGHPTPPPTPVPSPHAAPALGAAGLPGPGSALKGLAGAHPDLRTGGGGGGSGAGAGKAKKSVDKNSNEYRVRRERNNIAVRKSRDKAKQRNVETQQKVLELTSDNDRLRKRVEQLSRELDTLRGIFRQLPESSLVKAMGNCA

| Sequence | Kd [1] [µM] | fold reduction in binding affinity (fold reduction in affinity vs WT H2A) [2] | binding signal (fold reduction in affinity vs WT) [3] |
| --- | --- | --- | --- |
| TAGGTGCAGGGCCTCTCGGCTGCTGATCTTCAGCAACTTGCTGAGAGTTGCAGCATTGCTGAGTCTTAGCAATGGATACTTCCCGATTCCCCTCACAAAAATAGGTCAGTCTGTCTGGCTAGTTCTGTACTTGCAGACACAGGGCATGTGGGGTTCCTATTT (double strand) [Cmut CX3CR1 nucleosome] | 2.4 | – | – |
| TAGGTGCAGGGCCTCTCGGCTGCTGATCTTCAGCTGGTTGCTGAGAGTTGCAGCATTGCTGAGTCTTAGCAATGGATACTTCCCGATTCCCCTCACAAAAATAGGTCAGTCTGTCTGGCTAGTTCTGTACTTGCAGACACAGGGCATGTGGGGTTCCTATTT (double strand) [162 bp CX3CR1 nucleosome, 3A H2A (K75A;K76A;T77A)] | – | 3 | – |
| TAGGTGCAGGGCCTCTCGGCTGCTGATCTTCAGCTGGTTGCTGAGAGTTGCAGCATTGCTGAGTCTTAGCAATGGATACTTCCCGATTCCCCTCACAAAAATAGGTCAGTCTGTCTGGCTAGTTCTGTACTTGCAGACACAGGGCATGTGGGGTTCCTATTT (double strand) [162 bp CX3CR1 nucleosome] | 1.7 | – | 2 |

From article doi:10.1101/2023.08.25.554718
